According to US20110020369A1 (SCHERING, published 2011):

Columns and labels:
[1] = biological target: T1, human TSLPR on Ba/F3-hTSLPR-hIL7Ra cells (human, UniProt Q9HC73 23-371); assay: cell-based or functional assay
T1 sequence (looked up): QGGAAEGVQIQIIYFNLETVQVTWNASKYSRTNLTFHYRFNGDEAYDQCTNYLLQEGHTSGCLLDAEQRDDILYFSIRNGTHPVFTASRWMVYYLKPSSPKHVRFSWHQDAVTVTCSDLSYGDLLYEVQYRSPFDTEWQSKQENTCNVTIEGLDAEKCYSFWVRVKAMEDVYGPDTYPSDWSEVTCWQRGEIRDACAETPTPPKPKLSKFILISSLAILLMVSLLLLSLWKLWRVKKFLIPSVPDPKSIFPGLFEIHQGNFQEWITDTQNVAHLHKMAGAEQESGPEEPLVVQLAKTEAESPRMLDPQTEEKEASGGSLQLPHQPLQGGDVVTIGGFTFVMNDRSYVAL

[2] = biological target: cynomolgus TSLPR on Ba/F3-cTSLPR-cIL7Ra cells (cynomolgus monkey); assay: cell-based or functional assay
cTSLPR-Ig [3] = biological target: T2, cTSLPR-Ig (cynomolgus monkey); assay: ELISA, plate coated with TSLPR 50 ng/well, HRP goat anti-mouse detection
T2 construct: also called cyTSLP R-hIg P749; Mam-Trans[FlagPreProTrypsin]DELTA2_NHP[Ig]
Procedure: (§1) The ELISA measures the EC50 of certain mouse anti-TSLPR antibodies generated according to Example 2 are reported on Table 4. The antibodies were purified from hybridoma supernatants, and his-hTSLPR or cTSLPR-Ig was used to determine binding affinity.
(§2) Coating of plates was performed as follows: TSLPR (50 ng per well) in PBS was incubated at 4° C. overnight. Plates were washed with 1 cycle (3 washes/cycle) on a Molecular Devices plate washer. Antibody was then titrated across a row of eight wells in the range of 3000 ng/mL to […] using serial 3-fold dilutions and incubated for 60 min. at 25° C. Plates were washed for 1 cycle, HRP-goat anti-mouse) (1:2,000 dilution) was added at 0.05 mL/well and incubated for 60 min at 25° C. Plates were washed for 1 cycles. ABTS substrate was added at 0.05 mL/well and incubated 10 min at 25 C. Plates read at) or A_{405 nm}. [0223]

cTSLPR-Ig [4] = biological target: T2, cTSLPR-Ig; assay: SPR BIAcore T100, cyTSLPR-hIg amine-coupled on CM5, antibody as analyte, bivalent analyte model, n = 6
Procedure: (§3) The kinetic binding activities of the mouse anti human TSLPR antibody 13H5, chimeric anti-human TSLPR 13H5 antibody, rat anti-human TSLPR antibody 18B3, and mouse anti-human TSLPR antibody 70E8 against both human (hu) and cynomolgus monkey (cyno) TSLPR were measured by surface plasmon resonance using a BIAcore T100 system (BIAcore AB, Upsalla, Sweden). Approximately 70RUs of […] were immobilized via amine coupling chemistry onto a Sensor Chip CM5 (Research grade, BR-1006-68). HBS-EP buffer (BR-1006-69) was used as the running buffer with a flow rate of 30 μL/min. Antibodies at varying concentrations ranging from 0.01 to 600 nM were injected over the immobilized hu or cyno TSLP surfaces at a flow rate of 30 μL/min. Following each injection cycle the CM5 chip surface was regenerated using a series of solutions (10 mM Glycine pH 1.5 and 25 mM NaOH respectively) at a flow rate of 75 μL/min.
(§4) Background subtraction binding sensorgrams were used for analyzing the rate constant of association (ka) and dissociation (kd), and the equilibrium dissociation constant KD. The resulting data sets shown in Table 5 were fitted with a bivalent analyte model using the BlAevaluation software (version 1.0).

hTSLPR-ECTO-His = biological target: T3, hTSLPR-ECTO-His (human); assay: ELISA, plate coated with TSLPR 50 ng/well, HRP goat anti-mouse detection
T3 chain: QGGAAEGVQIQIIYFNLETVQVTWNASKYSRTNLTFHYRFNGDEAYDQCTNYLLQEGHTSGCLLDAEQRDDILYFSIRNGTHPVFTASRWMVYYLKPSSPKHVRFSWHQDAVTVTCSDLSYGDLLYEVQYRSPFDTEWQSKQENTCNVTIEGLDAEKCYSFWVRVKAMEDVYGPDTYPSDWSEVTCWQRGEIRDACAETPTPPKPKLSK
Procedure: as §1, §2

cTSLPR-Ig [5] = biological target: T2, cTSLPR-Ig; assay: SPR BIAcore T100, cyTSLPR-hIg amine-coupled on CM5, antibody as analyte, bivalent analyte model, n = 2
Procedure: as §3, §4

Row | Avg IC50, inhibition of hTSLP-induced proliferation of Ba/F3-huTSLPR cells [1] [µg/mL] | IC50 Assay I, Ba/F3-huTSLPR proliferation [1] [µg/mL] | IC50 Assay II, Ba/F3-huTSLPR proliferation [1] [µg/mL] | IC50 Assay III, Ba/F3-huTSLPR proliferation [1] [µg/mL] | Avg IC50, Ba/F3-cyTSLPR proliferation [2] [µg/mL] | IC50 Assay I, Ba/F3-cyTSLPR proliferation [2] [µg/mL] | IC50 Assay II, Ba/F3-cyTSLPR proliferation [2] [µg/mL] | IC50 Assay III, Ba/F3-cyTSLPR proliferation [2] [µg/mL] | EC50 (cTSLPR-Ig [3]) [µg/mL] | Kd (cTSLPR-Ig [4]) [pM] | koff (cTSLPR-Ig [4]) [s⁻¹] | kon (cTSLPR-Ig [4]) [M⁻¹ s⁻¹] | Avg IC50, Ba/F3-huTSLPR proliferation [1] [µg/mL] | EC50 (hTSLPR-ECTO-His) [µg/mL] | Kd (cTSLPR-Ig [5]) [pM] | koff (cTSLPR-Ig [5]) [s⁻¹] | kon (cTSLPR-Ig [5]) [M⁻¹ s⁻¹] | Binder
1 | – | 0.174 | 0.139 | 0.172 | > 10 | ~13 | ~18 | ~15 | 0.26 | – | – | – | 0.162 | 0.026 | – | – | – | mouse antibody 61C11 (antibody, mouse IgG2a, V domains shown, Mouse IgG2a/kappa from hybridoma; also called m61C11; LB55.61C11.2B1) VH: QAYLQQSGAELVRSGASVKMSCKASGYTFTSYNLHWIKLTPGQGLEWIGYIYPGLNGTLYNQKFRGKATLTADTSSSTAYMQISSLTSEDSAVYFCARSDYGKAWFAYWGRGTLVTVSA VL: DILLTQSPAILSVSPGERVSFSCRASQSIATKIHWYQQRTDHSPRLLIQLGSESISGIPSRFSGSGSGTDFTFTINSVESEDIAVYYCQQSNRYPYTFGGGTKLEVKR
2 | – | 0.211 | 0.132 | 0.191 | 0.138 | 0.125 | 0.153 | 0.137 | 0.0075 | – | – | – | 0.178 | 0.0458 | – | – | – | mouse antibody 54A11 (antibody, mouse IgG2a, V domains shown, Mouse IgG2a/kappa from hybridoma; also called m54A11; LB55.54A11.3D6) VH: EVQLQQSGPELVKPRASVKISCKASGYSFTGYYIHWVKQSHVKSLEWIGRINPYNGATIYNPNFKDKASLTVDKSSSTAFMEVHSLTSEDSAVYYCARSYGYVNYFDYWGQGTTLTVSS VL: EIVLTQSPATLSVTPGDSVSLSCRASQSISNNLHWYHQKSHESPRLLIKFGFQSISGIPSRFSGSGSGTDFTLSINSVETEDFGMYFCQQTNSWLTFGAGTKLELKR
3 | – | 0.318 | 0.259 | 0.335 | – | – | – | – | – | – | – | – | 0.304 | – | 10100 | 0.0078 | 770000 | rat anti-human TSLPR antibody 18B3 (antibody, V domains shown, Rat monoclonal antibody; also called r18B3; LB1.18B3) VH: EVQLVESGGGLVQPGRSLRLSCVASGFTFNNYWMTWVRQAPGKGLEWVASITDTSGRTYYPDSVKGRFTISRDHAKSTLYLQMNSLRPEDTATYYCTKTLGGIPRDWGQGVMVTVSS VL: NIQLTQSPSLLSASVGDRVTLSCKGSQNINNYLAWYQQKLGEAPKLLIFKTNILQTGIPLRFSGSGSGTDYTLTISSLHCEDLATYYCYQFNNGFTFGPGTKLELKR
4 | – | 0.0195 | 0.0188 | 0.0227 | – | – | – | – | 0.153 | – | – | – | 0.0203 | 0.0059 | – | – | – | mouse antibody 54C11 (antibody, mouse IgG2a, V domains shown, Mouse IgG2a/kappa from hybridoma; also called m54C11; LB55.54C11.3G11) VH: QVQLQQSGPEVVRPGVSVKISCKGSGFTFTDYAIHWVRQSHAKSLEWIGIIRPSNGNTNCDQKFKDKATMTVDKSSSTAYLDLARLTSEDSAIYYCSRSRVWGGSLAYWGQGTLVTVSA VL: DIVMTQSQKFMSTSVGDRVSVTCKASQNVGTNIAWYQQKPGQSPEALIYSASYRYSGVPDRFTGSGSGTDFTLTITNVQSEDLAEYFCQQYKSYPWTFGGGTKLEIKR

Further lines, the binder ahead of its results:

Row | Binder | Avg IC50, inhibition of hTSLP-induced proliferation of Ba/F3-huTSLPR cells [1] [µg/mL] | IC50 Assay I, Ba/F3-huTSLPR proliferation [1] [µg/mL] | IC50 Assay II, Ba/F3-huTSLPR proliferation [1] [µg/mL] | IC50 Assay III, Ba/F3-huTSLPR proliferation [1] [µg/mL] | Avg IC50, Ba/F3-cyTSLPR proliferation [2] [µg/mL] | IC50 Assay I, Ba/F3-cyTSLPR proliferation [2] [µg/mL] | IC50 Assay II, Ba/F3-cyTSLPR proliferation [2] [µg/mL] | IC50 Assay III, Ba/F3-cyTSLPR proliferation [2] [µg/mL] | EC50 (cTSLPR-Ig [3]) [µg/mL] | Kd (cTSLPR-Ig [4]) [pM] | koff (cTSLPR-Ig [4]) [s⁻¹] | kon (cTSLPR-Ig [4]) [M⁻¹ s⁻¹] | Avg IC50, Ba/F3-huTSLPR proliferation [1] [µg/mL] | EC50 (hTSLPR-ECTO-His) [µg/mL] | Kd (cTSLPR-Ig [5]) [pM] | koff (cTSLPR-Ig [5]) [s⁻¹] | kon (cTSLPR-Ig [5]) [M⁻¹ s⁻¹]
5 | mouse anti human TSLPR antibody 13H5 (antibody, mouse IgG1, V domains shown, Mouse IgG1/kappa purified from hybridoma supernatant; also called m13H5; LB55.13H5.2C3) VH: QVLLKQSGPSLVQPSQSLSITCTVSGFSLSRYGVHWVRQSPGKGLEWLGVIWRSGSTDYNAAFMSRLSITQDNSKSQVFFNMNSLQSDDSAIYYCAKKAFYVMDYWGQGTSVTVSS VL: DIQMTQTTSSLSASLGDRVTISCRASQDISIYLNWYQQKPDGTVKLLIYYTSRLHSGVPSRFSGSGSGTNFSLTITNLEEEDIATYFCQQGNTLPWTFGGGTKLEIKR | 0.0121 | 0.0127 | 0.014 | 0.0097 | 0.0129 | 0.0104 | 0.0148 | 0.0134 | > 0.001 | 89 | 7.1e-05 | 800000 | – | – | – | – | –
6 | mouse anti-human TSLPR antibody 70E8 (antibody, mouse IgG1, V domains shown, Mouse IgG1/kappa from hybridoma; also called m70E8; LB55.70E8.1A8) VH: DVQLQESGPDLVKPSQSLSLTCTVTNYSITSGYSWPWIRQFPGNKLEWLGYIHSSGRTNYNPSLKSRISITRDTSKNQFFLQLNSVTPEDTATYYCARSQLGLVFFAYWGQGTLVTVSA VL: DIVMTQSQKFMSTSVGDRVSVTCKASQSVGANVAWYQQIPGHSPKVLIYSASYRFSGVPDRFTGSGSGTDFTLTISNVQSEDLAEYFCQQYNSYPYTFGGGTKLEIRR | – | 0.0442 | 0.0489 | 0.0407 | > 50 | ~55 | ~90 | ~90 | 0.958 | – | – | – | 0.0446 | – | – | – | –
7 | mouse antibody 49A5 (antibody, mouse IgG1, V domains shown, Mouse IgG1/kappa from hybridoma; also called m49A5; LB55.49A5.2F9) VH: QVQLKQSGPGLVQPSQSLSITCTVSGFSLTTYGVHWVRQSPGKGLEWLGVIWRGGNTAYNPAFMSRLSITKDNSKSQVFFKMNSLQADDTAIYHCAKKSYYGYHAMGYWGQGTSVTVSS VL: DIQMTQTTSSLSASLGDRVTINCRASQDISNYLNWYQQNPDGTVKLLIYYTSRLHSGVPSRFSGSGSGTDYSLTISNLEQEDIATYFCQQANTLPWTFGGGTKLEIKR | – | 0.143 | 0.108 | 0.131 | 0.231 | 0.202 | 0.246 | 0.246 | 0.0059 | – | – | – | 0.127 | 0.0417 | – | – | –
8 | mouse antibody 4G8 (antibody, mouse IgG1, V domains shown, Mouse IgG1/kappa from hybridoma; also called m4G8; LB55.4G8.2A6) VH: QVQLKQSGPGLVQPSQSLSITCTVSGFSLTIYGLHWVRQSPGKGLEWLGVIWRGGSTDYNAAFMSRLRITKDNSKSQVFFKMDSLQADDTAIYYCAKPYYDYDGNWYFDVWGAGTTVTVSS VL: DIVMTQSQKFMSTSVGDRVSVTCKASQNVGTNVAWYQKKSGQSPKPLIYSASSHCSEVPDRFTGSGSGTDFTLTINNVQSEDLAEYFCQQYNRYPLTFGTGTKLEVRR | – | 0.292 | 0.202 | 0.291 | – | – | – | – | 0.081 | – | – | – | 0.262 | 0.0059 | – | – | –
9 | chimeric anti-human TSLPR 13H5 antibody (antibody, V domains shown, also called chim 13H5; Chimeric 13H5; not shown: human IgG1 heavy chain constant region (CH1-hinge-CH2-CH3); human kappa light chain constant domain (CL domain)) VH: QVLLKQSGPSLVQPSQSLSITCTVSGFSLSRYGVHWVRQSPGKGLEWLGVIWRSGSTDYNAAFMSRLSITQDNSKSQVFFNMNSLQSDDSAIYYCAKKAFYVMDYWGQGTSVTVSS VL: DIQMTQTTSSLSASLGDRVTISCRASQDISIYLNWYQQKPDGTVKLLIYYTSRLHSGVPSRFSGSGSGTNFSLTITNLEEEDIATYFCQQGNTLPWTFGGGTKLEIKR | – | – | – | – | – | – | – | – | – | – | – | – | – | – | 374 | 0.000172 | 460000
